The record followed here is the supplement of paper PMC10567573.

This series can be described thus: protein stability index of a GFP-peptide fusion (GPS, HEK-293T) (PSI 1-6); higher = more stable.
The mark [1] stands for this setting: treatment: DMSO, c terminus: a fixed tail appended.
Setting [2] is: treatment: MLN4924 1 uM, 8 h, c terminus: a fixed tail appended.
The mark [3] stands for this setting: treatment: DMSO, c terminus: native.
Where [4] appears, read: treatment: MLN4924 1 uM, 8 h, c terminus: native.

± gives the standard deviation.
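Note: 24-mer peptide tiles fused after GFP, lentivirally expressed, FACS-sorted into six equal bins by GFP/DsRed ratio, decoded by Illumina sequencing, PSI is the read-weighted mean bin number.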

Take EESRFCDAHLVLDGEEIPVQKNIL [GAN]: the protein stability index reads like this: under setting [1], 4.73 ± 0.22; under setting [2], 4.68 ± 0.073.
On the same counts, the results for WMWLSCSSFFQQFFHCYCPVGFGR [CRY1] are 2.42 ± 0.2 and 2.4 ± 0.25.
On the same counts, the results for YKVRHVHWKTWLAIKCSPSLHVDD [RIPK4] are 2.16 ± 0.34 and 1.98 ± 0.44.
Take TDDSYSCHCLKGFTLNPDKKTCRR [MATN2]: the protein stability index runs as follows: under setting [1], 3.27 ± 0.78; under setting [2], 4.03 ± 0.7.
On the same counts, the results for KAPSTDDATWAAVAACTKEIDTQG [C10orf62] are 5.14 ± 0.2 and 5.11 ± 0.09.
For NRVVVSGLPPSGSWQDLKDHMREA [SRSF1], the protein stability index runs as follows: under setting [1], 3.93 ± 0.094; under setting [2], 4.03 ± 0.12.
On the same counts, the results for KKKSVAMHTNYLSACSFTNSDMQI [GNB5] are 2.8 ± 0.12 and 2.8 ± 0.14.
On the same counts, the results for KRIEAEEAIKGLNGQKPLGAAEPI [ELAVL3] are 4.77 ± 0.16 and 4.951 ± 0.042.
On the same counts, the results for MKNLLFSEMWDIFLVRLLMAMAVM [MFSD9] are 3.14 ± 0.48 and 3.22 ± 0.77.
With LTMNSEDERRDAEERASLAGNRNS [KCNK9], the protein stability index came out at 5.56 ± 0.082 under setting [1] and 5.5 ± 0.22 under setting [2].
In the case of LTEQYTVTGLMEATQMMVDIDGDV [RHOBTB2], the protein stability index was found to be 4.66 ± 0.33 under setting [1] and 4.63 ± 0.29 under setting [2].
On the same counts, the results for PPGGSGSEPYKLLPGAVATIVKPL [HNF4A] are 3.59 ± 0.11 and 3.58 ± 0.18.
Turning to RSLLPSTEYQKQLLAAQVQLQCSP [FBF1], the protein stability index is, setting by setting: under setting [1], 3.46 ± 0.41; under setting [2], 3.73 ± 0.18.
On the same counts, the results for CLVKGIFYHCSNDDEGDSYSDNPC [SPRY1] are 2.61 ± 0.23 and 2.89 ± 0.15.
On the same counts, the results for QPMQNGEEDRPLGGGEGHQPAGNR [BEX3] are 5.42 ± 0.4 and 5.36 ± 0.35.
On the same counts, the results for INTLNGLKLQTKTIKVSYARPSSA [ELAVL3] are 2.38 ± 0.2 and 2.39 ± 0.26.
Take KDDKDFTGTVHRIDNTTVIYNSNI [KCNA1]: the protein stability index came to 4.29 ± 0.2 under setting [1] and 4.37 ± 0.2 under setting [2].
On the same counts, the results for CASFIRTRLLLQFTQPQQTSFALE [C8orf76] are 2.46 ± 0.28 and 2.7 ± 0.58.
On the same counts, the results for VFEKAGVSISVVHGNLSEEAAKQM [CPOX] are 3.72 ± 0.15 and 3.65 ± 0.4.
On the same counts, the results for PPPPPNEINPPPHTMEEEEDDDWG [EIF5] are 5.48 ± 0.17 and 5.61 ± 0.22.
With VSLGQKLVAAYVLGLLTMVFLRT [MOSPD3], the protein stability index was determined as 2.56 ± 0.71 under setting [3] and 2.07 ± 0.42 under setting [4].
DMVSNIELPTRIHEEVYFEPSSSK [MIA2]: the protein stability index reads like this: under setting [1], 3.68 ± 0.2; under setting [2], 3.88 ± 0.39.
For DNLSDLVMVRWNKSLEWSPWNCIL [IQUB], the protein stability index by setting is: under setting [1], 2.56 ± 0.76; under setting [2], 2.39 ± 0.34.
On the same counts, the results for HVEEHFQLLARRMQVDKKRVYLAT [FUT8] are 2.32 ± 0.14 and 2.29 ± 0.45.
Turning to NIDETCGRHHSQSTEVQAHPYSTT [TEKT4], the protein stability index was determined as 4.62 ± 0.091 under setting [1] and 4.54 ± 0.07 under setting [2].
On the same counts, the results for QGASESQAPGEENLLGEAAGGQDM [HDAC6] are 5.54 ± 0.22 and 5.45 ± 0.2.
On the same counts, the results for VRTMQNTNDVETARCTAGTLHNLS [CTNNB1] are 3.57 ± 0.33 and 3.81 ± 0.32.
On the same counts, the results for FNNGAHMSLLPDKKTVHYYAELGQ [PLK2] are 2.92 ± 0.34 and 2.66 ± 0.25.
Regarding KSTMDAISAEGFTDIDIDTLCAVL [BTBD1], the protein stability index reads like this: under setting [1], 2.21 ± 0.22; under setting [2], 2.33 ± 0.3.
In the case of TITEEIRDGKVISSREHVQSRPL [KRT36], the protein stability index is, setting by setting: under setting [3], 5.23 ± 0.29; under setting [4], 5.26 ± 0.21.
Turning to ITVGLVFLCLQYRLRGKLRAEIEN [MOG], the protein stability index was found to be 3.18 ± 0.42 under setting [1] and 3.29 ± 0.33 under setting [2].
On the same counts, the results for GEASYSTIAPTLIADLFVADQRSR [SPNS1] are 3.21 ± 0.39 and 3.29 ± 0.6.
Turning to AEAQKNMYFKTRLKCPRSLSGGR [ZNF396], the protein stability index was 2.72 ± 0.45 under setting [3] and 2.99 ± 0.44 under setting [4].
With QDAPLSDCTETIEGLELTEQTFSP [ADD1], the protein stability index worked out at 5.46 ± 0.21 under setting [1] and 5.3 ± 0.23 under setting [2].
On the same counts, the results for STFSTNYRSLGSVQAPSYGARPVS [KRT18] are 3.53 ± 0.16 and 3.61 ± 0.2.
On the same counts, the results for FQGSQGRAYLFNSVVNVGCGPAEE [YPEL3] are 2.57 ± 0.27 and 3.22 ± 0.1.
As to NAVRQNGQLVRNDSLWHRSDSAPR [MFF], the protein stability index came to 4.01 ± 0.25 under setting [1] and 4.07 ± 0.21 under setting [2].
On the same counts, the results for LDKKVEKVTISNRLVSSPCCIVTS [HSP90AB1] are 3.28 ± 0.34 and 2.98 ± 0.27.
On the same counts, the results for PFLLLFLGNFFTTLRVVHHKFHSQ [TMEM120A] are 3.28 ± 0.37 and 3.1 ± 0.22.
On the same counts, the results for KMIMDTAGNDPYCFVEFHEHRHAA [TIA1] are 3.28 ± 0.17 and 3.26 ± 0.29.
As for NETRRKHETRLVEVDSGRQIEYEY [LMNB1], the protein stability index stood at 4.54 ± 0.14 under setting [1] and 4.57 ± 0.23 under setting [2].
On the same counts, the results for ALDEAAAALTRMRAESTANAGQSD [ANKRD17] are 5.49 ± 0.17 and 5.36 ± 0.25.
On to LKSSGLCESLTYGLPFILRPTSCW [M1AP], for which the protein stability index by setting is: under setting [1], 2.9 ± 0.31; under setting [2], 3.06 ± 0.73.
On the same counts, the results for ELHEECEGNHPSARKLTAQRRAST [NET1] are 4.92 ± 0.21 and 5.09 ± 0.15.
On the same counts, the results for TSFPGRGSIPEFFHIMKRKFTNKE [AASDHPPT] are 3.179 ± 0.024 and 3.21 ± 0.72.
SVIVLDINDNAPTFQSSVLRVGIP [PCDHGC5]: the protein stability index reads like this: under setting [1], 2.18 ± 0.11; under setting [2], 2.21 ± 0.081.
As to LFFTALMITVPIGLYFTTKSYIFE [VMA21], the protein stability index runs as follows: under setting [1], 2.73 ± 0.46; under setting [2], 2.58 ± 0.055.
On the same counts, the results for GCKVPQEALLKLLAGLTRPDVRPP [SEPHS2] are 2.28 ± 0.33 and 2.03 ± 0.29.
On the same counts, the results for VGFRLCNSTGGDCFYRGYTSGVAA [SCNN1D] are 2.01 ± 0.58 and 1.94 ± 0.54.
On the same counts, the results for AFPKMALQAKQDGKKDVSHSSPVD [LCOR] are 5.26 ± 0.14 and 5.16 ± 0.16.
Consider AHRTEFYRNLTHNPPSDFSFQNMN [STK38L], for which the protein stability index turned out to be 2.84 ± 0.34 under setting [1] and 2.88 ± 0.24 under setting [2].
On the same counts, the results for HSCTCVLYTPSNEHFGIVPLEAMY [ALG2] are 2.43 ± 0.38 and 2.41 ± 0.22.
On the same counts, the results for IRINPQSWFDNGSICMRMEILGCP [CPXM2] are 2.86 ± 0.53 and 2.68 ± 0.59.
On to TFASLETVGIYFGLVYRIHSVLQG [TMEM40], for which the protein stability index is 3.59 ± 0.44 under setting [1] and 3.24 ± 0.23 under setting [2].
As to CVNMDRSFACQCPEGHVLRSDGKT [MATN2], the protein stability index is, setting by setting: under setting [1], 3.92 ± 0.21; under setting [2], 4.22 ± 0.73.
On the same counts, the results for TLASAGGPDNLVLLNPEKYKAKSR [ADD1] are 4.22 ± 0.22 and 4.31 ± 0.2.
On the same counts, the results for TLRLEKLGHPALSQEEGKSALEDQ [PPFIA4] are 5.38 ± 0.19 and 5.14 ± 0.21.
On the same counts, the results for SRNRDPGRLILSTIRLRPRQVLCE [PWWP2B] are 2.68 ± 0.18 and 3.04 ± 0.25.
In the case of RTSKSRGFAFITFENPADAKNAAK [RBMY1A1], the protein stability index runs as follows: under setting [1], 3.26 ± 0.28; under setting [2], 3.46 ± 0.43.
On the same counts, the results for RELRCKVFPIKHYQDKIRPYIQLP [TRIB1] are 2.15 ± 0.42 and 2.32 ± 0.1.
On the same counts, the results for DDEFFHFVLLCFAIGALLVCYHYY [TMEM40] are 2.27 ± 0.39 and 2.37 ± 0.88.
With ELTATFTKFDRDGNRILDEKEQEK [PKD2L1], the protein stability index turned out to be 5.38 ± 0.11 under setting [1] and 5.17 ± 0.18 under setting [2].
On the same counts, the results for NGLTPKKKIQVNSKPSIQPKPLLL [ATF6] are 3.48 ± 0.17 and 3.32 ± 0.25.
On the same counts, the results for SYFDMLYPEDSSWAAKAPGASSRE [SPDEF] are 3.56 ± 0.13 and 3.52 ± 0.22.
On the same counts, the results for TALGGQCVDRQEVAEITKQLPPVV [TCAP] are 4.07 ± 0.25 and 4.27 ± 0.13.
The sequence ENCTLVTTFRGHTGGVTALCWDPV [WDFY2] gave a protein stability index under setting [1] of 2.53 ± 0.32 and a protein stability index under setting [2] of 2.38 ± 0.18.
On the same counts, the results for LSLDNSPLLQSIHQLDFVQVKASS [TRIM9] are 2.73 ± 0.17 and 2.98 ± 0.42.
On the same counts, the results for LAALCLAGPPAPARACQLPSEWRP [CCDC3] are 2.96 ± 0.2 and 2.92 ± 0.058.
On the same counts, the results for STDTAVTNEWEKRLSTSPVRLAAR [EPB41L3] are 4.3 ± 0.26 and 4.44 ± 0.18.
Regarding LAVSNMGARSKGQCPEPPIVVHCS [PTPN9], the protein stability index reads like this: under setting [1], 3 ± 0.33; under setting [2], 2.95 ± 0.28.
For EKPYGCSECGKAFPRKSELTEHQR [ZNF649], the protein stability index was found to be 3.95 ± 0.49 under setting [1] and 4.44 ± 0.52 under setting [2].
On the same counts, the results for QAAVAAGDVHTVRKMLEQGYSPNG [ASB7] are 4.09 ± 0.31 and 4.11 ± 0.12.
